According to patent US20250144178A1 (KANAPH THERAPEUTICS, published 2025):

T1: mouse FAP (fibroblast activation protein alpha) overexpressed in B16F10 cells (B16F10-mFAP) (mouse, UniProt P97321 1-761)
T1 construct: whole, on cells; also called mouse FAP-expressing cell line
T1 sequence (looked up): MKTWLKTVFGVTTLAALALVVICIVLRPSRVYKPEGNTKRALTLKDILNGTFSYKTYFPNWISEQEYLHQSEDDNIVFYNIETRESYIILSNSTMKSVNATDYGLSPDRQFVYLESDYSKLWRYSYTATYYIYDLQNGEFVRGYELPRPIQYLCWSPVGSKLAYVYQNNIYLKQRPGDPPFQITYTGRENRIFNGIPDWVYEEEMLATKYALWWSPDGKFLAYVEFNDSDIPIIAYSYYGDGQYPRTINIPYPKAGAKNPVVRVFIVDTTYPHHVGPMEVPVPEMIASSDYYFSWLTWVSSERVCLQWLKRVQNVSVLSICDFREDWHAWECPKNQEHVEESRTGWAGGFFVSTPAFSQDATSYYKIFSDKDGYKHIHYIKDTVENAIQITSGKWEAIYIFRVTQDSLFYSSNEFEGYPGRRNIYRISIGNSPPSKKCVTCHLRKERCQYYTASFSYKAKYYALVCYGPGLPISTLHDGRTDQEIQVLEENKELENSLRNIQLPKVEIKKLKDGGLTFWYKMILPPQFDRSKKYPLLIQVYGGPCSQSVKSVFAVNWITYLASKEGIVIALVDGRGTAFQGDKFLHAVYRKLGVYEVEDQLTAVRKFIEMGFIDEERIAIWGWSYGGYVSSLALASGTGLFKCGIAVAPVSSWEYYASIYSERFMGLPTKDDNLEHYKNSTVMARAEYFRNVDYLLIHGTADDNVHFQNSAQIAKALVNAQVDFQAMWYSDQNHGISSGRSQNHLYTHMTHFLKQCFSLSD

T2: recombinant mouse FAP (mouse, UniProt P97321 26-761)
T2 construct: Soluble analyte in SPR
T2 sequence (looked up): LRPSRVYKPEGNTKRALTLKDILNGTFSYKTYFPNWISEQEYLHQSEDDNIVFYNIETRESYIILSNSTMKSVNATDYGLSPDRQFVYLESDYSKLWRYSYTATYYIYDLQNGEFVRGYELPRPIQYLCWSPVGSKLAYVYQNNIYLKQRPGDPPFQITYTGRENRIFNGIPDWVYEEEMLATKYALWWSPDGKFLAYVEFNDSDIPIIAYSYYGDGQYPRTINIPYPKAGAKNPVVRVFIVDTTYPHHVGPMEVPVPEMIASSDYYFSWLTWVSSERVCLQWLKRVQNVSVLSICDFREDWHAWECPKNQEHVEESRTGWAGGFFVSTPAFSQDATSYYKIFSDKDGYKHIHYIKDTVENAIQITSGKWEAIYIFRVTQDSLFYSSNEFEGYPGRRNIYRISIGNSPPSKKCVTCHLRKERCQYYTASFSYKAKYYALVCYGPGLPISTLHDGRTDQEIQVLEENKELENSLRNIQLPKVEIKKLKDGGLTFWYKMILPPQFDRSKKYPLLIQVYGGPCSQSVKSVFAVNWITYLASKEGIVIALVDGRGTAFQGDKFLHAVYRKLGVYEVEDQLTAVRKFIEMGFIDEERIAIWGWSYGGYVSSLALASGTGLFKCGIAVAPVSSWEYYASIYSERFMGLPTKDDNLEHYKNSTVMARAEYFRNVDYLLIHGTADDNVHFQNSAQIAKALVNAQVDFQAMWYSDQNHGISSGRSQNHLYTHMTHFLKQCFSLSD


Key:
[1] = biological target: T1, mouse FAP (fibroblast activation …); assay: flow cytometry on B16F10-mFAP cells, 1 µg protein per 1x10^5 cells, anti-mouse IgG2a detection
Method: (§1) Specifically, the cell line was prepared by suspending in a FACS buffer solution at 1×10⁵ cells/100 μl, and treated with 1 μg of each T1.12m, T1.01m, T1.02m and T1.03m. The cells were washed twice with a FACS buffer solution. The cells were stained with an anti-mouse IgG2a antibody (Biolegend). The negative control was stained only with an anti-mouse IgG2a antibody (Biolegend). The expression rate of the stained cells was measured using BD LSR and analyzed using a FlowJo software.

B16F10 = biological target: T3, B16F10; assay: flow cytometry on parental B16F10 cells, detection with anti-mouse IgG2a antibody
T3 construct: not a protein target; also called parental B16F10 cells, without the transduced mouse FAP gene
Method: as §1

recombinant mouse FAP = biological target: T2, recombinant mouse FAP; assay: SPR, fusion protein captured by anti-mouse IgG (Fc) on a CM5 chip, mouse FAP as analyte 1.5625-100 nM, 1:1 binding model
[2] = biological target: T1, mouse FAP (fibroblast activation …); assay: flow cytometry on B16F10-mFAP cells, detection with anti-mouse IgG2a antibody
Method: as §1

| Binder | percent of cells bound [1] [%] | percent of cells in the positive gate (mFAP-PE) (B16F10) [%] | Kd (recombinant mouse FAP) [nM] | koff (recombinant mouse FAP) [s⁻¹] | kon (recombinant mouse FAP) [M⁻¹ s⁻¹] | percent of cells in the positive gate (mFAP-PE) [2] [%] |
| --- | --- | --- | --- | --- | --- | --- |
| T1.02m (anti-mu FAP/mu IL-12 mut1, mu IgG2a DANG) (bispecific antibody, Mouse surrogate, knob-in-hole heterodimer) heavy: QVQLQQSGAELARPGASVNLSCKASGYTFTNNGINWLKQRTGQGLEWIGEIYPRSTNTLYNEKFKGKATLTADRSSNTAYMELRSLTSEDSAVYFCARTLTAPFAFWGQGTLVTVSAAKTTAPSVYPLAPVCGDTTGSSVTLGCLVKGYFPEPVTLTWNSGSLSSGVHTFPAVLQSDLYTLSSSVTVTSSTWPSQSITCNVAHPASSTKVDKKIEPRGPTIKPCPPCKCPAPNLLGGPSVFIFPPKIKDVLMISLSPIVTCVVVAVSEDDPDVQISWFVNNVEVHTAQTQTHREDYGSTLRVVSALPIQHQDWMSGKEFKCKVNNKDLPAPIERTISKPKGSVRAPQVYVLPPPEEEMTKKQVTLWCMVTDFMPEDIYVEWTNNGKTELNYKNTEPVLDSDGSYFMYSKLRVEKKNWVERNSYSCSVVHEGLHNHHTTKSFSRTPGK light: QIVLTQSPAIMSASPGEKVTMTCSASSGVNFMHWYQQKSGTSPKRWIFDTSKLASGVPARFSGSGSGTSYSLTISSMEAEDAATYYCQQWSFNPPTFGGGTKLEIKRADAAPTVSIFPPSSEQLTSGGASVVCFLNNFYPKDINVKWKIDGSERQNGVLNSWTDQDSKDSTYSMSSTLTLTKDEYERHNSYTCEATHKTSTSPIVKSFNRNEC MWELEKDVYVVEVDWTPDAPGETVNLTCDTPEEDDITWTSDQRHGVIGSGKTLTITVKEFLDAGQYTCHKGGETLSHSHLLLHKKENGIWSTEILKNFKNKTFLKCEAPNYSGRFTCSWLVQRNMDLKFNIKSSSSSPDSRAVTCGMASLSAEKVTLDQRDYEKYSVSCQEDVTCPTAEETLPIELALEARQQNKYENYSTSFFIRDIIKPDPPKNLQMKPLKNSQVEVSWEYPDSWSTPHSYFSLKFFVRIQRAKEKMAETEEGCNQKGAFLVEKTSTEVQCKGGNVCVQAQDRYYNSSCSKWACVPCRVRSGGGGSGGGGSGGGGSRVIPVSGPARCLSQSRNLLKTTDDMVKTAREKLKHYSCTAEDIDHEDITRDQTSTLKTCLPLELHKNESCLATRETSSTTRGSCLPPQKTSLMMTLCLGSIYEDLKMYQTEFQAINAALQNHNHQQIILDKGMLVAIDELMQSLNHNGETLRQKPPVGEADPYRVKMKLCILLHAFSTRVVTINRVMGYLSSAGGGGSGGGGSEPRGPTIKPCPPCKCPAPNLLGGPSVFIFPPKIKDVLMISLSPIVTCVVVAVSEDDPDVQISWFVNNVEVHTAQTQTHREDYGSTLRVVSALPIQHQDWMSGKEFKCKVNNKDLPAPIERTISKPKGSVRAPQVYVLPPPEEEMTKKQVTLSCAVTDFMPEDIYVEWTNNGKTELNYKNTEPVLDSDGSYFMVSKLRVEKKNWVERNSYSCSVVHEGLHNHHTTKSFSRTPGK | ≥ 99 | 1.37 | 1.53 | 0.00014 | 91500 | 92.1 |
| T1.12m (anti-mu FAP/null, mu IgG2a DANG) (antibody, One-armed anti-mouse FAP antibody without IL-12; control) heavy: QVQLQQSGAELARPGASVNLSCKASGYTFTNNGINWLKQRTGQGLEWIGEIYPRSTNTLYNEKFKGKATLTADRSSNTAYMELRSLTSEDSAVYFCARTLTAPFAFWGQGTLVTVSAAKTTAPSVYPLAPVCGDTTGSSVTLGCLVKGYFPEPVTLTWNSGSLSSGVHTFPAVLQSDLYTLSSSVTVTSSTWPSQSITCNVAHPASSTKVDKKIEPRGPTIKPCPPCKCPAPNLLGGPSVFIFPPKIKDVLMISLSPIVTCVVVAVSEDDPDVQISWFVNNVEVHTAQTQTHREDYGSTLRVVSALPIQHQDWMSGKEFKCKVNNKDLPAPIERTISKPKGSVRAPQVYVLPPPEEEMTKKQVTLWCMVTDFMPEDIYVEWTNNGKTELNYKNTEPVLDSDGSYFMYSKLRVEKKNWVERNSYSCSVVHEGLHNHHTTKSFSRTPGK light: QIVLTQSPAIMSASPGEKVTMTCSASSGVNFMHWYQQKSGTSPKRWIFDTSKLASGVPARFSGSGSGTSYSLTISSMEAEDAATYYCQQWSFNPPTFGGGTKLEIKRADAAPTVSIFPPSSEQLTSGGASVVCFLNNFYPKDINVKWKIDGSERQNGVLNSWTDQDSKDSTYSMSSTLTLTKDEYERHNSYTCEATHKTSTSPIVKSFNRNEC EPRGPTIKPCPPCKCPAPNLLGGPSVFIFPPKIKDVLMISLSPIVTCVVVAVSEDDPDVQISWFVNNVEVHTAQTQTHREDYGSTLRVVSALPIQHQDWMSGKEFKCKVNNKDLPAPIERTISKPKGSVRAPQVYVLPPPEEEMTKKQVTLSCAVTDFMPEDIYVEWTNNGKTELNYKNTEPVLDSDGSYFMVSKLRVEKKNWVERNSYSCSVVHEGLHNHHTTKSFSRTPGK | ≥ 99 | 1.97 |  |  |  | 92.6 |
| T1.01m (anti-mu FAP/mu IL-12, mu IgG2a DANG) (bispecific antibody, Mouse surrogate, knob-in-hole heterodimer) heavy: QVQLQQSGAELARPGASVNLSCKASGYTFTNNGINWLKQRTGQGLEWIGEIYPRSTNTLYNEKFKGKATLTADRSSNTAYMELRSLTSEDSAVYFCARTLTAPFAFWGQGTLVTVSAAKTTAPSVYPLAPVCGDTTGSSVTLGCLVKGYFPEPVTLTWNSGSLSSGVHTFPAVLQSDLYTLSSSVTVTSSTWPSQSITCNVAHPASSTKVDKKIEPRGPTIKPCPPCKCPAPNLLGGPSVFIFPPKIKDVLMISLSPIVTCVVVAVSEDDPDVQISWFVNNVEVHTAQTQTHREDYGSTLRVVSALPIQHQDWMSGKEFKCKVNNKDLPAPIERTISKPKGSVRAPQVYVLPPPEEEMTKKQVTLWCMVTDFMPEDIYVEWTNNGKTELNYKNTEPVLDSDGSYFMYSKLRVEKKNWVERNSYSCSVVHEGLHNHHTTKSFSRTPGK light: QIVLTQSPAIMSASPGEKVTMTCSASSGVNFMHWYQQKSGTSPKRWIFDTSKLASGVPARFSGSGSGTSYSLTISSMEAEDAATYYCQQWSFNPPTFGGGTKLEIKRADAAPTVSIFPPSSEQLTSGGASVVCFLNNFYPKDINVKWKIDGSERQNGVLNSWTDQDSKDSTYSMSSTLTLTKDEYERHNSYTCEATHKTSTSPIVKSFNRNEC MWELEKDVYVVEVDWTPDAPGETVNLTCDTPEEDDITWTSDQRHGVIGSGKTLTITVKEFLDAGQYTCHKGGETLSHSHLLLHKKENGIWSTEILKNFKNKTFLKCEAPNYSGRFTCSWLVQRNMDLKFNIKSSSSSPDSRAVTCGMASLSAEKVTLDQRDYEKYSVSCQEDVTCPTAEETLPIELALEARQQNKYENYSTSFFIRDIIKPDPPKNLQMKPLKNSQVEVSWEYPDSWSTPHSYFSLKFFVRIQRKKEKMKETEEGCNQKGAFLVEKTSTEVQCKGGNVCVQAQDRYYNSSCSKWACVPCRVRSGGGGSGGGGSGGGGSRVIPVSGPARCLSQSRNLLKTTDDMVKTAREKLKHYSCTAEDIDHEDITRDQTSTLKTCLPLELHKNESCLATRETSSTTRGSCLPPQKTSLMMTLCLGSIYEDLKMYQTEFQAINAALQNHNHQQIILDKGMLVAIDELMQSLNHNGETLRQKPPVGEADPYRVKMKLCILLHAFSTRVVTINRVMGYLSSAGGGGSGGGGSEPRGPTIKPCPPCKCPAPNLLGGPSVFIFPPKIKDVLMISLSPIVTCVVVAVSEDDPDVQISWFVNNVEVHTAQTQTHREDYGSTLRVVSALPIQHQDWMSGKEFKCKVNNKDLPAPIERTISKPKGSVRAPQVYVLPPPEEEMTKKQVTLSCAVTDFMPEDIYVEWTNNGKTELNYKNTEPVLDSDGSYFMVSKLRVEKKNWVERNSYSCSVVHEGLHNHHTTKSFSRTPGK | ≥ 99 | 2.41 | 1.51 | 6.75e-05 | 44700 | 93.7 |
